Assay results taken from PMC7618200 (The Biochemical journal, 2025).
Like-named read-outs stand apart in the source and are kept apart here. Values belong to the molecule of their own block, whether it stands above or below them. Ends that are not written are not given here. Peptide text beside a SMILES is read from it. * marks the point of attachment. 5FAM = O=C1OC2(c3ccc(O)cc3Oc3cc(O)ccc32)c2ccc(C(=O)*)cc21; 5Flu = 5-carboxyfluorescein label

Legend:
[1] = target: Pdx1 15-mer peptide, fluorescently labeled (SPOP-binding region of pancreas/duodenum homeobox protein 1) (not stated (Figure 5A aligns a Homo sapiens and a Mesocricetus auratus sequence)); assay: fluorescence polarisation; two-fold dilution series of SPOP^MATH mixed with a constant 6-50 nM 5Flu-labeled peptide; 50 mM HEPES pH 7.5, 100 mM NaCl, 1 mM TCEP, 0.005% Tween-20; 25°C; one-site total binding fit; mean of three independent experiments
[2] = target: T1, SPOP^MATH (SPOP MATH domain) (Homo sapiens, UniProt O43791); assay: FP competition assay: unlabelled peptide versus Puc-5Flu peptide on SPOP^MATH; assay type: binding; conditions: read-out: IC50, FP competition, MyD88 peptides of varying length (Figure 1F)
T1 construct: bacterially expressed SPOP protein (SPOP^MATH); hexahistidine-MBP (with HRV 3C site) (N, cleaved yes); made in house; host or cells: E. coli BL21 (DE3); tracer peptide synthesized by Peptide Synthetics
Experimental: (§1) Peptides and SPOP^MATH protein were diluted in FP buffer (50 mM HEPES pH 7.5, 100 mM NaCl, 1 mM TCEP, 0.005% Tween-20). Measurements were made in 384-well black flat-bottom low-flange plates (Corning) using 20 μl reaction volumes. Plates were equilibrated at room temperature for 30 minutes before reading. Millipolarization (mP) measurements were taken in a Hidex Sense microplate reader (Hidex) at 25°C, with excitation at 490 nm (20 nm filter), emission at 520 nm (14 nm filter), and a G-factor of 1.
The technical duplicate mP values were averaged, and error bars represent standard deviation. Data were plotted and analyzed using Prism 9 software. […] IC50 values from three independent experiments were averaged and the standard deviation was calculated.

[3] = target: T1, SPOP^MATH (SPOP MATH domain); assay: Fluorescence polarization (FP) binding of 5Flu-labelled peptides to SPOP^MATH; conditions: FP direct binding; 6-50 nM 5Flu-peptide, two-fold dilution series of SPOP^MATH; 50 mM HEPES pH 7.5, 100 mM NaCl, 1 mM TCEP, 0.005% Tween-20; 30 min at room temperature, read at 25°C; one-site total binding fit; mean ± SD of three independent experiments; ~ = estimated; read-out: Kd, binding of fluorescently (5Flu) labeled peptide to SPOP^MATH
Experimental: as §1

[4] = target: T2, SPOP MATH domain (SPOP^MATH; residues 28-166) (human, UniProt O43791 28-166); assay: fluorescence polarisation; competition: two-fold dilution series of unlabeled peptide with 50 nM Puc-5Flu peptide and 5 μM SPOP^MATH; 50 mM HEPES pH 7.5, 100 mM NaCl, 1 mM TCEP, 0.005% Tween-20; 25°C; conditions: both partners purified
T2 construct: the methods print 28-116; Cleaved with HRV 3C protease; also called speckle-type BTB/POZ protein MATH domain; source: E. coli BL21 (DE3), purified (Ni-NTA, tag cleavage, reverse Ni-NTA, SEC); not shown: His6, N-terminal, cleaved; MBP, N-terminal, cleaved

[5] = target: T3, SPOP MATH domain (SPOP^MATH; residues 28-166) (human, UniProt O43791 28-166); assay: FP
T3 chain: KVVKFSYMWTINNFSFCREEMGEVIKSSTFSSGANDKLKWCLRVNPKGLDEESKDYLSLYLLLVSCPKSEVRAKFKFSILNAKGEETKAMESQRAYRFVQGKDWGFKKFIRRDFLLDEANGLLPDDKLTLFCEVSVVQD

[6] = target: T3, SPOP MATH domain (SPOP^MATH; residues …); assay: FP
[7] = target: T2, SPOP MATH domain (SPOP^MATH; residues …); assay: fluorescence polarisation; two-fold dilution series of SPOP^MATH mixed with a constant 6-50 nM 5Flu-labeled peptide; 50 mM HEPES pH 7.5, 100 mM NaCl, 1 mM TCEP, 0.005% Tween-20; 25°C; one-site total binding fit; mean of three independent experiments; conditions: both partners purified
[8] = target: T4, SPOP MATH domain (SPOP^MATH; residues 28-166) (human), O43791; assay: FP; conditions: modification not given
T4 chain: T3 chain

Molecule: SPOP MATH domain (SPOP^MATH; residues 28-166) (from UniProt O43791 28-166) (domain or fragment)
- Kd [1]: 48 µM

Molecule: CC(C)C[C@H](NC(=O)[C@@H]1CCCN1)C(=O)N[C@@H](CCC(N)=O)C(=O)N[C@H](C(=O)N[C@@H](C)C(=O)N[C@@H](C)C(=O)N[C@H](C(=O)N[C@@H](CC(=O)O)C(=O)N[C@@H](CO)C(=O)N[C@@H](CO)C(=O)N[C@H](C(=O)N1CCC[C@H]1C(=O)N[C@@H](CCCNC(=N)N)C(=O)N[C@H](C(=O)O)[C@@H](C)O)C(C)C)C(C)C)C(C)C
- IC50 [2]: ~518 µM

Molecule: AEKPLQVAAVAAAVPRT
- IC50 [2]: ~2110 µM

Molecule: CC(C)[C@H](NC(=O)c1ccc2c(c1)C(=O)OC21c2ccc(O)cc2Oc2cc(O)ccc21)C(=O)N[C@@H](C)C(=O)N[C@@H](CCC(=O)O)C(=O)N1CCC[C@H]1C(=O)N[C@@H](CCC(=O)O)C(=O)N[C@@H](CCC(N)=O)C(=O)N[C@@H](CC(=O)O)C(=O)N[C@@H](CS)C(=O)N[C@@H](C)C(=O)N[C@H](C(=O)N[C@H](C(=O)N[C@@H](CO)C(=O)NCC(=O)N[C@@H](CCC(=O)O)C(=O)N[C@@H](CCC(=O)O)C(=O)O)[C@@H](C)O)C(C)C (5FAM-VAEPEQDCAVTSGEE-OH)
- Kd [3]: ~48 µM

Molecule: DTDNLQSEQLSSSSDGS [SENP7 17-mer peptide]
- IC50 [5]: ~2400 µM

Molecule: LVSSTSEGY [Caprin1 9-mer peptide]
- IC50 [5]: ~773 µM

Molecule: SRENLACDEVTSTTS [Puc peptide (unlabeled competitor; natural Puc peptide)]
- IC50 [6]: 98.6 µM

B4: Puc-5Flu peptide (SRENLACDEVTSTTSK-5Flu) (peptide)
peptide: SRENLACDEVTSTTSK(5Flu)
notes: added C-terminal lysine that carries the label; also called ^5Flu-Puc peptide; fluorescently labeled Puc peptide; source: synthetic peptide (Peptide Synthetics, Peptide Protein Research Limited)
- Kd [7]: 1.1 µM

Second part, the molecule after the results:

- binding result [4]: binds
B1: chimeric MyD88-Puc peptide AEKPLQVAAVTSTTS (peptide)
peptide: AEKPLQVAAVTSTTS
notes: Puckered (Puc) SBC; also called chimeric peptide; source: synthetic peptide (Peptide Synthetics, Peptide Protein Research Limited)

- binding result [4]: binds
- IC50 [5]: 16.9 µM
B2: SRC-3 17-mer peptide 91NDDDVQKADVSSTGQGV107 (peptide)
peptide: NDDDVQKADVSSTGQGV
notes: also called NCoA-3; source: synthetic peptide

- binding result [4]: binds
- IC50 [5]: 2.6 µM
B3: Caprin1 17-mer peptide 426QPEATQVPLVSSTSEGY442 (peptide)
peptide: QPEATQVPLVSSTSEGY
notes: Caprin1, human, residues 426-442; source: synthetic peptide

- binding result [4]: binds
- IC50 [5]: ~699 µM
B5: SETD2 17-mer peptide DKGSVQAPEISSNSIKD (printed 363-1379) (peptide)
peptide: DKGSVQAPEISSNSIKD
notes: SET domain-containing protein 2 (SETD2), human; also called SET domain-containing protein 2; source: synthetic peptide

- IC50 [8]: 2110 µM
Molecule: AEKPLQVAAVAAAVPRT […]
